Paper PMC9929655 (The Journal of Cell Biology, 2023)

T1: Sro7 (full length) (yeast, UniProt Q12038 1-1033)
T1 sequence: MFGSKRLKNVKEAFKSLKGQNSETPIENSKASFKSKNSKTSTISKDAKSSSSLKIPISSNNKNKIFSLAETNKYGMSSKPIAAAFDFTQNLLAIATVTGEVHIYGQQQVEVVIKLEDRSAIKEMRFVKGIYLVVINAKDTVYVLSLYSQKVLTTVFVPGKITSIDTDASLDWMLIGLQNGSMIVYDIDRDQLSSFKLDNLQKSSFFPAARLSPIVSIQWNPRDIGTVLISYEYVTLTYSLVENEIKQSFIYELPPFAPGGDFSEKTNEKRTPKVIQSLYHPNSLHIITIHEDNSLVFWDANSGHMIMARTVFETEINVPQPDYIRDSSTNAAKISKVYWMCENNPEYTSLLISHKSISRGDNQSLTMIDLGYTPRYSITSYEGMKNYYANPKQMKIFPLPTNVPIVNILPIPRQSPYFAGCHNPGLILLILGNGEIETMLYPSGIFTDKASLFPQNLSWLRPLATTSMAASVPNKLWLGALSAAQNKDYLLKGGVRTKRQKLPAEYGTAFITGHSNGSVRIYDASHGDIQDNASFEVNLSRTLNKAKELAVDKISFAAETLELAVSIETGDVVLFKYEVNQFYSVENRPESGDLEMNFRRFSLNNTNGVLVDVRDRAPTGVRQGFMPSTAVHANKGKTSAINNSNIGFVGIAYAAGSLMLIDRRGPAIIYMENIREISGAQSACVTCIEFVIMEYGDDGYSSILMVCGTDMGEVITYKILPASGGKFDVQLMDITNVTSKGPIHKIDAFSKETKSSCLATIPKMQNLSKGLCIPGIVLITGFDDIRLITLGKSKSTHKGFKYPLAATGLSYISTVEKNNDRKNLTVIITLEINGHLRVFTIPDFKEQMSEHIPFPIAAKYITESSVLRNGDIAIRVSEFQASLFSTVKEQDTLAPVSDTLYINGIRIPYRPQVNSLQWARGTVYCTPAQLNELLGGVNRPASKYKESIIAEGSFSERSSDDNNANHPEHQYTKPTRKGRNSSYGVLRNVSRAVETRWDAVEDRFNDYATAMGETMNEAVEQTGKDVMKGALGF

B1: GST-Exo84 (aa 1–326) (domain or fragment)
chain: MVEFSLKKARNNWKHVKKSASSPAKQKTPPSPAKPKQKTKKNPYSDLKDPATSYTLPTINARERSRVATSMQRRLSIHNTNYAPPTLDYSMPLPDMPNMIVPNDNVDSSHNNSSFTTENESVSSKGPSNSLNLSTADLSLNDSSYNKVPARSAMRNTVNPSGSNDPFNNSTSLRKMLANPHFNAKDFVHDKLGNASAITIDKFTSNLTDLSIQVQEEVKLNINKSYNEIMTVNNDLNVAMLELKRVRANINDLNEVLDQCTKIAEKRLQLQDQIDQERQGNFNNVESHSNSPALLPPLKAGQNGNLMRRDRSSVLILEKFWDTELD
B2: C-terminally tagged GST-Sro7-NT (aa 1–79) (domain or fragment)
chain: MFGSKRLKNVKEAFKSLKGQNSETPIENSKASFKSKNSKTSTISKDAKSSSSLKIPISSNNKNKIFSLAETNKYGMSSK
B3: His-tagged Sro7-NT (aa 1–90) (domain or fragment)
chain: MFGSKRLKNVKEAFKSLKGQNSETPIENSKASFKSKNSKTSTISKDAKSSSSLKIPISSNNKNKIFSLAETNKYGMSSKPIAAAFDFTQN

Assays:
Test in all cases: pull-down
Sro7 (full length) = molecular target: T1, Sro7 (full length)
[1] = molecular target: His-tagged Exo84 (aa 1–326) (S. cerevisiae, UniProt P38261 1-326)
GST-Exo84 (aa 1–326) = molecular target: B1

## B1
Sro7 (full length)
  binding result: binds

## B2
[1]
  binding result: binds

## B3
GST-Exo84 (aa 1–326)
  binding result: binds
